The values below come from US11957763B2, “Sulfamide linkers for use in bioconjugates” (SYNAFFIX B.V., priority 2016, dated 2024).

Holding throughout (type): biochemical
One data set deals with glycans on glycoproteins. The data set is described as follows: pH at which the endoglycosidase activity operates. The text has this: Trimming of glycoproteins is known in the art, from e.g. WO 2007/133855 or WO 2014/065661.
For data set [1], the system named is Trastuzumab having high-mannose glycans. The data set is described as follows: Trimming of high-mannose trastuzumab by fusion protein EndoSH. The conditions noted are these: 1 w/w % EndoSH, 37° C., after 3 hours, 25 mM Tris buffer pH 8, MS analysis. As to the method:
Trastuzumab having high-mannose glycans (obtained via transient expression in CHO K1 cells in the presence of kifunensine performed by Evitria (Zurich, Switzerland)) (14 mg/mL) in 25 mM Tris buffer pH 8, was trimmed using a concentration of either 0.1 or 1 w/w % EndoSH. The reactions, 350 μg high-mannose trastuzumab (25 μL) and the appropriate amount of EndoSH, were stirred at 37° C. and analyzed by MS analysis over time, 1-3 hours. Samples were subjected to Fabricator treatment prior to analysis.
Prior to mass spectral analysis, IgGs were either treated with DTT, which allows analysis of both light and heavy chain, or treated with Fabricator™ (commercially available from Genovis, Lund, Sweden), which allows analysis of the Fc/2 fragment. For analysis of both light and heavy chain, a solution of 20 μg (modified) IgG was incubated for 5 minutes at 37° C. with 100 mM DTT in a total volume of 4 μL. If present, azide-functionalities are reduced to amines under these conditions. For analysis of the Fc/2 fragment, a solution of 20 μg (modified) IgG was incubated for 1 hour at 37° C. with Fabricator™ (1.25 U/μL) in phosphate-buffered saline (PBS) pH 6.6 in a total volume of 10 μL. […] Next, the samples were analyzed by electrospray ionization time-of-flight (ESI-TOF) on a JEOL AccuTOF. […]

The subject of a further data set is Trastuzumab. The data set is described as follows: Trimming of trastuzumab by EndoSH. The conditions noted are these: 0.1 w/w % EndoSH, 37° C., after 1 hour, 25 mM Tris buffer pH 8, MS analysis. As to the method: Trastuzumab (obtained from Epirus biopharma (Utrecht, The Netherlands)) in 25 mM Tris buffer pH 8), (14 mg/mL) was trimmed using a concentration of either 0.1 or 1 w/w % EndoSH. The reactions, 350 μg trastuzumab (25 μL) and the appropriate amount of EndoSH, were stirred at 37° C. and analyzed by MS analysis overtime, 1 to 3 hours. Samples were subjected to Fabricator treatment prior to analysis.
Prior to mass spectral analysis, IgGs were either treated with DTT, which allows analysis of both light and heavy chain, or treated with Fabricator™ (commercially available from Genovis, Lund, Sweden), which allows analysis of the Fc/2 fragment. For analysis of both light and heavy chain, a solution of 20 μg (modified) IgG was incubated for 5 minutes at 37° C. with 100 mM DTT in a total volume of 4 μL. If present, azide-functionalities are reduced to amines under these conditions. For analysis of the Fc/2 fragment, a solution of 20 μg (modified) IgG was incubated for 1 hour at 37° C. with Fabricator™ (1.25 U/μL) in phosphate-buffered saline (PBS) pH 6.6 in a total volume of 10 μL. After reduction or Fabricator-digestion the samples were washed trice with milliQ using an Amicon Ultra-0.5, Ultracel-10 Membrane (Millipore) resulting in a final sample volume of approximately 40 μL. Next, the samples were analyzed by electrospray ionization time-of-flight (ESI-TOF) on a JEOL AccuTOF. […]

B1: EndoSH: fusion enzyme of endoglycosidases EndoS and EndoH connected via a -(G4S)3-(His)6-(G4S)3- linker, SEQ ID NO: 1 (protein)
chain: MPSIDSLHYLSENSKKEFKEELSKAGQESQKVKEILAKAQQADKQAQELAKMKIPEKIPMKPLHGPLYGGYFRTWHDKTSDPTEKDKVNSMGELPKEVDLAFIFHDWTKDYSLFWKELATKHVPKLNKQGTRVIRTIPWRFLAGGDNSGIAEDTSKYPNTPEGNKALAKAIVDEYVYKYNLDGLDVDVEHDSIPKVDKKEDTAGVERSIQVFEEIGKLIGPKGVDKSRLFIMDSTYMADKNPLIERGAPYINLLLVQVYGSQGEKGGWEPVSNRPEKTMEERWQGYSKYIRPEQYMIGFSFYEENAQEGNLWYDINSRKDEDKANGINTDITGTRAERYARWQPKTGGVKGGIFSYAIDRDGVAHQPKKYAKQKEFKDATDNIFHSDYSVSKALKTVMLKDKSYDLIDEKDFPDKALREAVMAQVGTRKGDLERFNGTLRLDNPAIQSLEGLNKFKKLAQLDLIGLSRITKLDRSVLPANMKPGKDTLETVLETYKKDNKEEPATIPPVSLKVSGLTGLKELDLSGFDRETLAGLDAATLTSLEKVDISGNKLDLAPGTENRQIFDTMLSTISNHVGSNEQTVKFDKQKPTGHYPDTYGKTSLRLPVANEKVDLQSQLLFGTVTNQGTLINSEADYKAYQNHKIAGRSFVDSNYHYNNFKVSYENYTVKVTDSTLGTTTDKTLATDKEETYKVDFFSPADKTKAVHTAKVIVGDEKTMMVNLAEGATVIGGSADPVNARKVFDGQLGSETDNISLGWDSKQSIIFKLKEDGLIKHWRFFNDSARNPETTNKPIQEASLQIFNIKDYNLDNLLENPNKFDDEKYWITVDTYSAQGERATAFSNTLNNITSKYWRVVFDTKGDRYSSPVVPELQILGYPLPNADTIMKTVTTAKELSQQKDKFSQKMLDELKIKEMALETSLNSKIFDVTAINANAGVLKDCIEKRQLLKKGGGGSGGGGSGGGGSHHHHHHEFGGGGSGGGGSGGGGSAPAPVKQGPTSVAYVEVNNNSMLNVGKYTLADGGGNAFDVAVIFAANINYDTGTKTAYLHFNENVQRVLDNAVTQIRPLQQQGIKVLLSVLGNHQGAGFANFPSQQAASAFAKQLSDAVAKYGLDGVDFDDEYAEYGNNGTAQPNDSSFVHLVTALRANMPDKIISLYNIGPAASRLSYGGVDVSDKFDYAWNPYYGTWQVPGIALPKAQLSPAAVEIGRTSRSTVADLARRTVDEGYGVYLTYNLDGGDRTADVSAFTRELYGSEAVRTP
modifications: Fusion protein EndoSH
As to B1, in the data set on glycans on glycoproteins, the “pH at which both activities (EndoS and EndoH) of the fusion enzyme function smoothly” value is recorded as 7-8. The “conversion to the trimmed product, trimmed to the core GlcNAc sugar residue” value (in data set [1]; in the data set on Trastuzumab) was “Full conversions” in each case.
